From PMC9894173 (Proceedings of the National Academy of Sciences of the …, 2022)

Biological target: His6-FLAG-MBP-tagged DHX15 (aa 113–795) (human, UniProt O43143 113-795)
Assay: co-IP

Sequence of His6-FLAG-MBP-tagged DHX15 (aa 113–795) (O43143 113-795): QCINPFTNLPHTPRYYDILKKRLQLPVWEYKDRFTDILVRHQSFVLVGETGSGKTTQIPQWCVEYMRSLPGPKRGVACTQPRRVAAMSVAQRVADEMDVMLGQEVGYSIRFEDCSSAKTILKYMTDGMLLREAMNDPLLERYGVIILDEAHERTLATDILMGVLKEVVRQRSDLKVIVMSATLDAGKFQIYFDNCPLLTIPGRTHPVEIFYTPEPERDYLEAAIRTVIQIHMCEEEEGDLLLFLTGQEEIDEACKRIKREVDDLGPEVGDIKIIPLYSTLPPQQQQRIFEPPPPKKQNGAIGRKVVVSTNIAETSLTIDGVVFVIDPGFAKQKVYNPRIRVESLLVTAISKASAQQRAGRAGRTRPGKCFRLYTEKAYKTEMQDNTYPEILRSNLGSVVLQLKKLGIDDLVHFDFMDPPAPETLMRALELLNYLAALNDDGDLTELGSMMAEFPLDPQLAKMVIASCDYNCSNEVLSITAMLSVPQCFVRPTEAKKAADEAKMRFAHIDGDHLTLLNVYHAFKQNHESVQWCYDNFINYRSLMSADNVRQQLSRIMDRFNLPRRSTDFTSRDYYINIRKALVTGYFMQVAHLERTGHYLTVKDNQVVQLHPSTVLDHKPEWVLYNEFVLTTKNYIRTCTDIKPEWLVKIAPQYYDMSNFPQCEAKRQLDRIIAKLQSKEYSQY

B1: His6-HA-tagged SUGP1 WT (full length) (natural protein)
chain: MSLKMDNRDVAGKANRWFGVAPPKSGKMNMNILHQEELIAQKKREIEAKMEQKAKQNQVASPQPPHPGEITNAHNSSCISNKFANDGSFLQQFLKLQKAQTSTDAPTSAPSAPPSTPTPSAGKRSLLISRRTGLGLASLPGPVKSYSHAKQLPVAHRPSVFQSPDEDEEEDYEQWLEIKVSPPEGAETRKVIEKLARFVAEGGPELEKVAMEDYKDNPAFAFLHDKNSREFLYYRKKVAEIRKEAQKSQAASQKVSPPEDEEVKNLAEKLARFIADGGPEVETIALQNNRENQAFSFLYEPNSQGYKYYRQKLEEFRKAKASSTGSFTAPDPGLKRKSPPEALSGSLPPATTCPASSTPAPTIIPAPAAPGKPASAATVKRKRKSRWGPEEDKVELPPAELVQRDVDASPSPLSVQDLKGLGYEKGKPVGLVGVTELSDAQKKQLKEQQEMQQMYDMIMQHKRAMQDMQLLWEKAVQQHQHGYDSDEEVDSELGTWEHQLRRMEMDKTREWAEQLTKMGRGKHFIGDFLPPDELEKFMETFKALKEGREPDYSEYKEFKLTVENIGYQMLMKMGWKEGEGLGSEGQGIKNPVNKGTTTVDGAGFGIDRPAELSKEDDEYEAFRKRMMLAYRFRPNPLNNPRRPYY
B1: binds.
